Experimental data published in publication PMC10885103 (2023).
Bridges are numbered along the chain shown (N, C = ends). Where no end group is shown, it is not given here. [ ]: non-standard residue; d: D form.

Target: T1, TNFR-1 CRD2 72-116 (Homo sapiens, UniProt P19438)
T1 chain: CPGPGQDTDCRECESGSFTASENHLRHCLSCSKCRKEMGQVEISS
Assay: grating-coupled interferometry

Kd: 1000 nM
Binder: [dC](cysteinyl)[dF][dH][dC][dI][dW][dL]G[dD][dE][dC] (disulfide 4-11; also: CRD2 with C-terminal biotin linker) [d-TCPB]
